# Several values for one entry are separate records, joined by “and”; a condition that tells them apart may be missing. Equal entries are not always repeated.
# Tests used:
# PC-3 cells [1] = test: Boyden chamber migration of PC-3 cells against conditioned medium from mature adipocytes (CM-Ad, 3T3-F442A); type: cell-based, human
# From the text: The monoclonal antibodies targeted against CCR1 (D063-3 clone 141-2) and CCR3 (D083-3, clone 444-11) are obtained from MBL International (Worburn, Mass., USA). The anti-CCR2 (clone E68) and anti-CCR3 (clone Y31) monoclonal antibodies are obtained from Abcam (Cambridge, Mass., USA). The monoclonal antibodies against CXCR2 (clone 48311), CXCR4 (clone 44716) and CCR1 (clone 53504) are obtained from R&D Systems (Minneapolis, Minn., USA).
# The inhibitor targeting the receptor CXCR4, AMD3100 (Rosenkilde, Gerlach et al. 2004) is obtained from Sigman Aldrich and is used at final concentrations of 1, 10, 50 and 100 nM. The inhibitor targeting the receptors CXCR1 and CXCR2, SB225002 (White, Lee et al. 1998)) is obtained from Tocris (Bristol, United Kingdom) and is used at final concentrations of 1, 10 and 100 nm. […]
# In order to evaluate the ability of tumor cells to migrate according to the culture medium, Boyden chamber migration tests were conducted using 8 μm porosity Greiner bio-one inserts. […] The migration of the tumor cells is evaluated after 12 hrs of migration at 37° C. and 5% CO2 by 1% toluidine blue staining supplemented with 0.1M borax (Sigma, St Louis, Mo., USA) and quantification of the absorbance (measured at 570 nm).
# RM1-BM cells = test: Migration of RM1-BM cells against serum-free medium with recombinant CCL7; type: cell-based, mouse; settings: 100 ng/mL; p<0.01
# Description: (§1) In order to evaluate the ability of tumor cells to migrate according to the culture medium, Boyden chamber migration tests were conducted using 8 μm porosity Greiner bio-one inserts. In the lower compartment either culture medium with or without serum, or conditioned medium from F442A adipocytes (CM-Ad), human periprostatic adipose tissue (CM-PPAT), mouse perigonadal adipose tissue (CM-PGAT), adipocytes or vascular fraction cells (SVF) isolated from PPAT or PGAT is introduced. These conditioned media may be pretreated for 30 minutes by adding antibodies blocking the chemokine CCL7. Experiments with the recombinant chemokine CCL7 were also conducted, in this case the chemokine is added to serum-free culture medium to verify the chemoattractant potential thereof on a cell line. In the upper chamber 1×10^5 cells, previously depleted for 6 hours of serum are deposited in serum-free culture medium. […] The migration of the tumor cells is evaluated after 12 hrs of migration at 37° C. and 5% CO2 by 1% toluidine blue staining supplemented with 0.1M borax (Sigma, St Louis, Mo., USA) and quantification of the absorbance (measured at 570 nm).
# Du-145 cells = test: Migration of Du-145 cells against serum-free medium with recombinant CCL7; type: cell-based, human; settings: dose-dependent, 1-100 ng/ml
# Description: as §1
# PC-3 cells [2] = test: Migration of PC-3 cells against serum-free medium with recombinant CCL7; type: cell-based, human; settings: dose-dependent, 1-100 ng/ml
# Description: as §1
# TRAMP-C1P3 cells [3] = test: Migration of TRAMP-C1P3 cells against serum-free medium with recombinant CCL7; type: cell-based, mouse; settings: 1-100 ng/ml
# Description: as §1
# receptor CCR3 = test: Expression of receptor CCR3 in shRNA-transfected TRAMP-C1P3 cells; type: cell-based, mouse; settings: stable shRNA, lentiviral
# Description: The tumor cells (from prostate, breast, colon, pancreas, or melanoma) were washed three times in FACS buffer (PBS supplemented with 0.5% BSA and 2% FCS) and fixed with a 3.7% paraformaldehyde solution for 20 min at 4° C. The tumor cells were suspended with anti-CXCR4 (10 μg/ml), anti-CXCR1 (10 μg/ml), anti-CXCR2 (1:25), anti-CCR1 (10 μg/ml), anti-CCR2 (20 μg/ml), anti-CCR3 (10 μg/ml) antibodies or isotypical mouse anti-IgG control antibodies at 4° C. for 2 hours. The tumor cells were incubated with a mouse anti-IgG secondary antibody (dilution to 1:200) coupled with Alexa Fluor 488 or coupled with Cyanine 5 (for cells expressing GFP) for 30 minutes at 4° C. Finally, 2×10^4 cells were analyzed by flow cytometry using a FACScan and FACScalibur flow cytometer (analysis on CellQuest™ software (BD-PharMingen)).
# In order to inhibit the expression of the receptor CCR3 (NM_009914) in a stable manner in TRAMP-C1P3 cells, an shRNA approach was used enabling stable negative regulation even after several months of culture. The interfering sequences were generated using the Dharmacon “Center siDesign” tool. The sequences of the sense strands of shRNA generated are as follows:
# (§2) The nucleotides targeting the sequence of CCR3 are shown in upper case, whereas the sequence responsible for the hairpin structure and the sequences required for directional cloning are represented in lower case letter. The lentiviral vector LVTHM® is a lentiviral vector (LV) coding for the shRNA CCR3 sequences under the control of the H1 promoter also expressing GFP. The TRAMP-C1P3 cells were then transfected in the presence of m4, m5 or m6-LVTHM for 24 hours at a multiplicity of infection (MOI) of 1:10. The transfected population is selected by GFP expression (cell sorting). These cells were then analyzed by flow cytometry to validate the loss of expression of the CCR3 gene. The control used is the pLVTHM plasmid which expresses an ineffective shRNA sequence.
# TRAMP-C1P3 cells [4] = test: Migration of shRNA-transfected TRAMP-C1P3 lines against CM-Ad or adipose tissue conditioned medium; type: cell-based, mouse
# Description: In order to evaluate the ability of tumor cells to migrate according to the culture medium, Boyden chamber migration tests were conducted using 8 μm porosity Greiner bio-one inserts. In the lower compartment either culture medium with or without serum, or conditioned medium from F442A adipocytes (CM-Ad), human periprostatic adipose tissue (CM-PPAT), mouse perigonadal adipose tissue (CM-PGAT), adipocytes or vascular fraction cells (SVF) isolated from PPAT or PGAT is introduced. These conditioned media may be pretreated for 30 minutes by adding antibodies blocking the chemokine CCL7. Experiments with the recombinant chemokine CCL7 were also conducted, in this case the chemokine is added to serum-free culture medium to verify the chemoattractant potential thereof on a cell line. In the upper chamber 1×10^5 cells, previously depleted for 6 hours of serum are deposited in serum-free culture medium. For the migration tests in the presence of blocking antibodies specific for CCR1 or CCR3 or inhibitors of CCR1/CCR3, CCR2, CXCR1/CXCR2 and CXCR4, the tumor cells are previously incubated in a tube with the blocking antibody or the inhibitor for 30 min at 37° C. The migration of the tumor cells is evaluated after 12 hrs of migration at 37° C. and 5% CO2 by 1% toluidine blue staining supplemented with 0.1M borax (Sigma, St Louis, Mo., USA) and quantification of the absorbance (measured at 570 nm).
# as §2
# TRAMP-C1P3 cells [5] = test: Intraprostatic injection of TRAMP-C1P3 cells in C57BL/6 mice, tumor growth; type: in vivo; settings: for tumor size: 2×10^6 cells intraprostatic, n=11, p<0.001 vs shCtrl
# Description: Male C57BL/6 mice aged 18 weeks on a normal or high-fat diet were anesthetized with isoflurane. A transverse incision was made at the lower part of the abdomen. The muscles of the abdominal wall were incised, and the bladder and the seminal vesicles were released so as to expose the dorsal lobe of the prostate. A suspension of 2×10^6 cells (in 30 μl of PBS) was then carefully injected under the prostate capsule by means of a gauge 30 needle. The incision was closed using 4-0 suture and clips. The animals were then placed in cages and regular monitoring is conducted in order to monitor macroscopically the general condition of the mouse. After 20 days of tumor establishment, the mice are sacrificed, the primary tumor is thus removed, measured and weighed, and an acquisition in white light and GFP is carried out. The tumors are then placed in a paraformaldehyde solution (4%) and included in paraffin.
molecule,measurement,setting,value
c1cc(CN2CCCNCCNCCCNCC2)ccc1CN1CCCNCCNCCCNCC1 [AMD3100],reduction of migration of PC-3 cells against CM-Ad,"PC-3 cells [1]; 100 nM (maximum dose, only dose effective), p<0.05",approximately 20%
O=C(Nc1ccc([N+](=O)[O-])cc1O)Nc1ccccc1Br [SB225002],inhibition of migration of PC-3 cells induced by CM-Ad,"PC-3 cells [1]; 50 nM, p<0.01",approximately 30%
"recombinant chemokine CCL7: human recombinant chemokine CCL7, ligand of CCR3, added to serum-free medium as chemoattractant",induction of migration of RM1-BM cells with respect to serum-free medium,RM1-BM cells,significant migration
same,dose from which induced migration of Du-145 cells is significant compared to medium alone,Du-145 cells,50 ng/mL
same,dose from which induced migration of PC-3 cells is significant compared to medium alone,PC-3 cells [2],50 ng/mL
same,dose from which dose-dependent chemotaxis of TRAMP-C1P3 cells is induced,TRAMP-C1P3 cells [3],50 ng/mL
"m5CCR3: shRNA targeting the gene CCR3, SEQ ID NO: 2 (nucleic acid) CGCGTCCCCGACCACACCCTATGAATATTTCAAGAGAATATTCATAGGGTGTGGTCTTTTTGGAAAT",expression of receptor CCR3 in TRAMP-C1P3 line with respect to control line (shCtrl),receptor CCR3,significant reduction
same,migration of shCCR3 TRAMP-C1P3 lines against CM-Ad with respect to control line,TRAMP-C1P3 cells [4],significant reduction
"m4CCR3: shRNA targeting the gene CCR3, SEQ ID NO: 1 (nucleic acid) CGCGTCCCCAGACCACACCCTATGAATATTCAAGAGATATTCATAGGGTGTGGTCTTTTTTGGAAAT",expression of receptor CCR3 in TRAMP-C1P3 line with respect to control line (shCtrl),receptor CCR3,significant reduction
same,migration of shCCR3 TRAMP-C1P3 lines against CM-Ad with respect to control line,TRAMP-C1P3 cells [4],significant reduction
"m6CCR3: shRNA targeting the gene CCR3, SEQ ID NO: 3 (nucleic acid) CGCCGTCCCCGGTGAGAGGTTCCGGAAACTTCAAGAGAGTTTCCGGAACCTCTCACCTTTTTGGAAAT","invasion of the dorsal lobe of the prostate (histology, HE) compared with C1P3 Ctrl line",TRAMP-C1P3 cells [5]; histological sections,much less extensive invasion
same,tumor size,TRAMP-C1P3 cells [5]; mice on normal-fat diet,220±30 mm3
same,tumor size,TRAMP-C1P3 cells [5]; obese mice on high-fat diet,210±25 mm3 and 200±50 mm3
same,expression of receptor CCR3 in TRAMP-C1P3 line with respect to control line (shCtrl),receptor CCR3,significant reduction
same,migration of shCCR3 TRAMP-C1P3 lines against CM-Ad with respect to control line,TRAMP-C1P3 cells [4],significant reduction
same,migration of shCCR3 TRAMP-C1P3 line against conditioned medium of ND AT-mu-PG with respect to control line,TRAMP-C1P3 cells [4]; ND AT-mu-PG,reduction in the migration is also detected
same,increase in migration in presence of HFD AT-mu-PG,"TRAMP-C1P3 cells [4]; m6CCR3 line, unlike shCtrl line",not significant

# From patent publication US10401365B2, “Inhibition of chemokine CCL7 or receptor CCR3 of same for the treatment and diagnosis of prostate cancer” (Universite Paul Sabatier (Toulouse III), priority 2014, dated 2019)
